Experimental data taken from publication PMC5546597.

What was measured:
[1] = biological target: MTCL1 CC1 fragment purified from E. coli (mouse); assay: SDS-PAGE without heat pretreatment; purified tag-free CC1 fragment in SDS sample buffer with 2% SDS, with or without heat treatment (100°C, 10 min); CBB staining
[2] = biological target: MTCL1 CC1 fragment purified from E. coli (mouse); assay: cross-linking; purified CC1 fragment (0.52 mg/ml) in PBS, 30 min at 25°C with DST (0.1, 0.3 and 0.9 mg/ml); stopped with 50 mM Tris-HCl pH 7.5

Substance: MTCL1 CC1 fragment purified from E. coli (domain or fragment)
- stoichiometry N [1]: 2
- stoichiometry N [2]: 2
